Experimental data published in paper doi:10.1101/2021.10.24.465637.

What was measured:
[1] = molecular target: SGHRT-FLAG (human SGHRT, C-terminal FLAG) (human); assay: SDS-PAGE and Western blot
[2] = molecular target: SGHRT-HA (human SGHRT, C-terminal HA) (human); assay: SDS-PAGE and Western blot

Substance: SGHRT-FLAG (human SGHRT, C-terminal FLAG) (peptide)
- stoichiometry N [1]: 2

Substance: SGHRT-HA (human SGHRT, C-terminal HA) (peptide)
- stoichiometry N [2]: 2
